The source of these data is patent publication US12698494.

For data set [1], the target named is T1, FRETS-VWF73 fluorogenic substrate, P04275.
T1 chain: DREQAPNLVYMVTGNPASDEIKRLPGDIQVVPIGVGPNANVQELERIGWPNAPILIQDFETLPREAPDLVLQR

Data set [2] deals with Von Willebrand Factor (VWF) multimers, P04275.

B1: ADAMTS13 variant NGLY7 (664EYGNLT669 to 664ENVTLT669; glycan shift from N667 to Y665) (protein)
chain: AAGGILHLELLVAVGPDVFQAHQEDTERYVLTNLNIGAELLRDPSLGAQFRVHLVKMVILTEPEGAPNITANLTSSLLSVCGWSQTINPEDDTDPGHADLVLYITRFDLELPDGNRQVRGVTQLGGACSPTWSCLITEDTGFDLGVTIAHEIGHSFGLEHDGAPGSGCGPSGHVMASDGAAPRAGLAWSPCSRRQLLSLLSAGRARCVWDPPRPQPGSAGHPPDAQPGLYYSANEQCRVAFGPKAVACTFAREHLDMCQALSCHTDPLDQSSCSRLLVPLLDGTECGVEKWCSKGRCRSLVELTPIAAVHGRWSSWGPRSPCSRSCGGGVVTRRRQCNNPRPAFGGRACVGADLQAEMCNTQACEKTQLEFMSQQCARTDGQPLRSSPGGASFYHWGAAVPHSQGDALCRHMCRAIGESFIMKRGDSFLDGTRCMPSGPREDGTLSLCVSGSCRTFGCDGRMDSQQVWDRCQVCGGDNSTCSPRKGSFTAGRAREYVTFLTVTPNLTSVYIANHRPLFTHLAVRIGGRYVVAGKMSISPNTTYPSLLEDGRVEYRVALTEDRLPRLEEIRIWGPLQEDADIQVYRRYGEENVTLTRPDITFTYFQPKPRQAWVWAAVRGPCSVSCGAGLRWVNYSCLDQARKELVETVQCQGSQQPPAWPEACVLEPCPPYWAVGDFGPCSASCGGGLRERPVRCVEAQGSLLKTLPPARCRAGAQQPAVALETCNPQPCPARWEVSEPSSCTSAGGAGLALENETCVPGADGLEAPVTEGPGSVDEKLPAPEPCVGMSCPPGWGHLDATSAGEKAPSPWGSIRTGAQAAHVWTPAAGSCSVSCGRGLMELRFLCMDSALRVPVQEELCGLASKPGSRREVCQAVPCPARWQYKLAACSVSCGRGVVRRILYCARAHGEDDGEEILLDTQCQGLPRPEPQEACSLEPCPPRWKVMSLGPCSASCGLGTARRSVACVQLDQGQDVEVDEAACAALVRPEASVPCLIADCTYRWHVGTWMECSVSCGDGIQRRRDTCLGPQAQAPVPADFCQHLPKPVTVRGCWAGPCVGQGTPSLVPHEEAAAPGRTTATPAGASLEWSQARGLLFSPAPQPRRLLPGPQENSVQSSACGRQHLEPTGTIDMRGPGQADCAVAIGRPLGEVVTLRVLESSLNCSAGDMLLLWGRLTWRKMCRKLLDMTFSSKTNTLVVRQRCGRPGGGVLLRYGSQLAPETFYRECDMQLFGPWGEIVSPSLSPATSNAGGCRLFINVAPHARIAIHALATNMGAGTEGANASYILIRDTHSLRTTAFHGQQVLYWESESSQAEMEFSEGFLKAQASLRGQYWTLQSWVPEMQDPQSWKGKEGT
Turning to B1, the Activity level (% relative to wild type ADAMTS13) VWFFRETS73 (% relative to wild type ADAMTS13) in data set [1] stood at 125. In data set [2], the “Ability to process VWF multimers under denaturing conditions” value (“Ability to process VWF multimers” below) was “+++++” and the “vortex assay: processing of VWF multimers under shear stress” value (shortened to “vortex assay: processing”) was “NGLY7 was clearly capable of processing the large VWF multimers”.

B2: ADAMTS13 variant NGLY3 + NGLY8 (607GNMSI611/667LNVTA671) (protein)
chain: AAGGILHLELLVAVGPDVFQAHQEDTERYVLTNLNIGAELLRDPSLGAQFRVHLVKMVILTEPEGAPNITANLTSSLLSVCGWSQTINPEDDTDPGHADLVLYITRFDLELPDGNRQVRGVTQLGGACSPTWSCLITEDTGFDLGVTIAHEIGHSFGLEHDGAPGSGCGPSGHVMASDGAAPRAGLAWSPCSRRQLLSLLSAGRARCVWDPPRPQPGSAGHPPDAQPGLYYSANEQCRVAFGPKAVACTFAREHLDMCQALSCHTDPLDQSSCSRLLVPLLDGTECGVEKWCSKGRCRSLVELTPIAAVHGRWSSWGPRSPCSRSCGGGVVTRRRQCNNPRPAFGGRACVGADLQAEMCNTQACEKTQLEFMSQQCARTDGQPLRSSPGGASFYHWGAAVPHSQGDALCRHMCRAIGESFIMKRGDSFLDGTRCMPSGPREDGTLSLCVSGSCRTFGCDGRMDSQQVWDRCQVCGGDNSTCSPRKGSFTAGRAREYVTFLTVTPNLTSVYIANHRPLFTHLAVRIGGRYVVAGNMSISPNTTYPSLLEDGRVEYRVALTEDRLPRLEEIRIWGPLQEDADIQVYRRYGEEYGLNVTADITFTYFQPKPRQAWVWAAVRGPCSVSCGAGLRWVNYSCLDQARKELVETVQCQGSQQPPAWPEACVLEPCPPYWAVGDFGPCSASCGGGLRERPVRCVEAQGSLLKTLPPARCRAGAQQPAVALETCNPQPCPARWEVSEPSSCTSAGGAGLALENETCVPGADGLEAPVTEGPGSVDEKLPAPEPCVGMSCPPGWGHLDATSAGEKAPSPWGSIRTGAQAAHVWTPAAGSCSVSCGRGLMELRFLCMDSALRVPVQEELCGLASKPGSRREVCQAVPCPARWQYKLAACSVSCGRGVVRRILYCARAHGEDDGEEILLDTQCQGLPRPEPQEACSLEPCPPRWKVMSLGPCSASCGLGTARRSVACVQLDQGQDVEVDEAACAALVRPEASVPCLIADCTYRWHVGTWMECSVSCGDGIQRRRDTCLGPQAQAPVPADFCQHLPKPVTVRGCWAGPCVGQGTPSLVPHEEAAAPGRTTATPAGASLEWSQARGLLFSPAPQPRRLLPGPQENSVQSSACGRQHLEPTGTIDMRGPGQADCAVAIGRPLGEVVTLRVLESSLNCSAGDMLLLWGRLTWRKMCRKLLDMTFSSKTNTLVVRQRCGRPGGGVLLRYGSQLAPETFYRECDMQLFGPWGEIVSPSLSPATSNAGGCRLFINVAPHARIAIHALATNMGAGTEGANASYILIRDTHSLRTTAFHGQQVLYWESESSQAEMEFSEGFLKAQASLRGQYWTLQSWVPEMQDPQSWKGKEGT
With B2, in data set [1], the Activity level (% relative to wild type ADAMTS13) VWFFRETS73 (% relative to wild type ADAMTS13) is 120 and the “FRETS-VWF73 activity relative to wild-type ADAMTS13 (text value, differs from Table 4)” value is given as “NGLY3 plus NGLY8 was 75% active when compared to wild type ADAMTS13”. Further, in data set [2], the “Ability to process VWF multimers” value is on record as “++” and the “vortex assay: processing” value is listed as “Combinations of NGLY3/NGLY8 also revealed a reduced ability to process VWF multimers”.

B3: ADAMTS13 variant NGLY3 + NGLY7 (607GNMSI611/664ENVTLT669) (protein)
chain: AAGGILHLELLVAVGPDVFQAHQEDTERYVLTNLNIGAELLRDPSLGAQFRVHLVKMVILTEPEGAPNITANLTSSLLSVCGWSQTINPEDDTDPGHADLVLYITRFDLELPDGNRQVRGVTQLGGACSPTWSCLITEDTGFDLGVTIAHEIGHSFGLEHDGAPGSGCGPSGHVMASDGAAPRAGLAWSPCSRRQLLSLLSAGRARCVWDPPRPQPGSAGHPPDAQPGLYYSANEQCRVAFGPKAVACTFAREHLDMCQALSCHTDPLDQSSCSRLLVPLLDGTECGVEKWCSKGRCRSLVELTPIAAVHGRWSSWGPRSPCSRSCGGGVVTRRRQCNNPRPAFGGRACVGADLQAEMCNTQACEKTQLEFMSQQCARTDGQPLRSSPGGASFYHWGAAVPHSQGDALCRHMCRAIGESFIMKRGDSFLDGTRCMPSGPREDGTLSLCVSGSCRTFGCDGRMDSQQVWDRCQVCGGDNSTCSPRKGSFTAGRAREYVTFLTVTPNLTSVYIANHRPLFTHLAVRIGGRYVVAGNMSISPNTTYPSLLEDGRVEYRVALTEDRLPRLEEIRIWGPLQEDADIQVYRRYGEENVTLTRPDITFTYFQPKPRQAWVWAAVRGPCSVSCGAGLRWVNYSCLDQARKELVETVQCQGSQQPPAWPEACVLEPCPPYWAVGDFGPCSASCGGGLRERPVRCVEAQGSLLKTLPPARCRAGAQQPAVALETCNPQPCPARWEVSEPSSCTSAGGAGLALENETCVPGADGLEAPVTEGPGSVDEKLPAPEPCVGMSCPPGWGHLDATSAGEKAPSPWGSIRTGAQAAHVWTPAAGSCSVSCGRGLMELRFLCMDSALRVPVQEELCGLASKPGSRREVCQAVPCPARWQYKLAACSVSCGRGVVRRILYCARAHGEDDGEEILLDTQCQGLPRPEPQEACSLEPCPPRWKVMSLGPCSASCGLGTARRSVACVQLDQGQDVEVDEAACAALVRPEASVPCLIADCTYRWHVGTWMECSVSCGDGIQRRRDTCLGPQAQAPVPADFCQHLPKPVTVRGCWAGPCVGQGTPSLVPHEEAAAPGRTTATPAGASLEWSQARGLLFSPAPQPRRLLPGPQENSVQSSACGRQHLEPTGTIDMRGPGQADCAVAIGRPLGEVVTLRVLESSLNCSAGDMLLLWGRLTWRKMCRKLLDMTFSSKTNTLVVRQRCGRPGGGVLLRYGSQLAPETFYRECDMQLFGPWGEIVSPSLSPATSNAGGCRLFINVAPHARIAIHALATNMGAGTEGANASYILIRDTHSLRTTAFHGQQVLYWESESSQAEMEFSEGFLKAQASLRGQYWTLQSWVPEMQDPQSWKGKEGT
Consider B3, for which, in data set [1], the Activity level (% relative to wild type ADAMTS13) VWFFRETS73 (% relative to wild type ADAMTS13) was 135 and the “FRETS-VWF73 activity relative to wild-type ADAMTS13 (text value, differs from Table 4)” value is recorded as “NGLY3 plus NGLY7 was 125% active when compared to the wild type”. For the same protein, in data set [2], the “Ability to process VWF multimers” value is “+++++” and the “vortex assay: processing” value is listed as “combination of NGLY3/NGLY7 retained proteolytic activity towards multimeric VWF”.

B4: ADAMTS13 variant NGLY8 (667NLTRP671 to 667LNVTA671; glycan shift from N667 to L668) (protein)
chain: AAGGILHLELLVAVGPDVFQAHQEDTERYVLTNLNIGAELLRDPSLGAQFRVHLVKMVILTEPEGAPNITANLTSSLLSVCGWSQTINPEDDTDPGHADLVLYITRFDLELPDGNRQVRGVTQLGGACSPTWSCLITEDTGFDLGVTIAHEIGHSFGLEHDGAPGSGCGPSGHVMASDGAAPRAGLAWSPCSRRQLLSLLSAGRARCVWDPPRPQPGSAGHPPDAQPGLYYSANEQCRVAFGPKAVACTFAREHLDMCQALSCHTDPLDQSSCSRLLVPLLDGTECGVEKWCSKGRCRSLVELTPIAAVHGRWSSWGPRSPCSRSCGGGVVTRRRQCNNPRPAFGGRACVGADLQAEMCNTQACEKTQLEFMSQQCARTDGQPLRSSPGGASFYHWGAAVPHSQGDALCRHMCRAIGESFIMKRGDSFLDGTRCMPSGPREDGTLSLCVSGSCRTFGCDGRMDSQQVWDRCQVCGGDNSTCSPRKGSFTAGRAREYVTFLTVTPNLTSVYIANHRPLFTHLAVRIGGRYVVAGKMSISPNTTYPSLLEDGRVEYRVALTEDRLPRLEEIRIWGPLQEDADIQVYRRYGEEYGLNVTADITFTYFQPKPRQAWVWAAVRGPCSVSCGAGLRWVNYSCLDQARKELVETVQCQGSQQPPAWPEACVLEPCPPYWAVGDFGPCSASCGGGLRERPVRCVEAQGSLLKTLPPARCRAGAQQPAVALETCNPQPCPARWEVSEPSSCTSAGGAGLALENETCVPGADGLEAPVTEGPGSVDEKLPAPEPCVGMSCPPGWGHLDATSAGEKAPSPWGSIRTGAQAAHVWTPAAGSCSVSCGRGLMELRFLCMDSALRVPVQEELCGLASKPGSRREVCQAVPCPARWQYKLAACSVSCGRGVVRRILYCARAHGEDDGEEILLDTQCQGLPRPEPQEACSLEPCPPRWKVMSLGPCSASCGLGTARRSVACVQLDQGQDVEVDEAACAALVRPEASVPCLIADCTYRWHVGTWMECSVSCGDGIQRRRDTCLGPQAQAPVPADFCQHLPKPVTVRGCWAGPCVGQGTPSLVPHEEAAAPGRTTATPAGASLEWSQARGLLFSPAPQPRRLLPGPQENSVQSSACGRQHLEPTGTIDMRGPGQADCAVAIGRPLGEVVTLRVLESSLNCSAGDMLLLWGRLTWRKMCRKLLDMTFSSKTNTLVVRQRCGRPGGGVLLRYGSQLAPETFYRECDMQLFGPWGEIVSPSLSPATSNAGGCRLFINVAPHARIAIHALATNMGAGTEGANASYILIRDTHSLRTTAFHGQQVLYWESESSQAEMEFSEGFLKAQASLRGQYWTLQSWVPEMQDPQSWKGKEGT
With B4, in data set [1], the Activity level (% relative to wild type ADAMTS13) VWFFRETS73 (% relative to wild type ADAMTS13) is 76 and the “FRETS-VWF73 activity relative to wild-type ADAMTS13 (text value, differs from Table 4)” value is recorded as “NGLY8 was 75% active when compared to wild-type ADAMTS13”. Besides, in data set [2], the “Ability to process VWF multimers” value is “++”; the “vortex assay: processing” value is “NGLY8 displayed a reduced ability to process VWF multimers when compared to NGLY3 and NGLY7”.
